The text below walks through data of the supplement of paper PMC12042874.

This data set in a line: amyloid nucleation score (Sup35N fusion, yeast selection) (log enrichment); library NNK3; higher = more nucleation; inactive = no reads after selection. The procedure, abridged: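 Psi-negative yeast expressed Sup35N fused to peptides of 20 random codons. They were induced 24 hours with 100 μM copper sulfate, grown 7 days at 30°C without adenine and uracil, and their plasmid inserts from input and output were Illumina-sequenced. The nucleation score is the DiMSum log enrichment of output over input reads, centred on the mode score of non-aggregating sequences. Sequences with under 100 input reads were excluded.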

± gives the uncertainty stated by the source.

As to RKACYLLVI, the amyloid nucleation score result was “inactive”.

GTDSFAIYSWKIRLLSERYP: the amyloid nucleation score entry was “inactive”.

As for RMRLSWVMHSV, the amyloid nucleation score entry is “inactive”.

On to TETASNSTRYSFL, for which the amyloid nucleation score entry was “inactive”.

In turn, ILNISCFYEWYDHTLNSQSV yielded an amyloid nucleation score of -0.203 ± 0.42.

In turn, KYVYFMSVFCEVCSRAHRVV showed an amyloid nucleation score of 1.24 ± 0.1.

Turning to TNTFQSRNMFVNTALIYSP, the amyloid nucleation score result is “inactive”.

With VMTITLVLKWYGLLT, the amyloid nucleation score result was “inactive”.

In the case of NGFCSASICREDCEMWNMQS, the amyloid nucleation score result is “inactive”.

Regarding SVFDKGESGRRYGGEV, the amyloid nucleation score result is “inactive”.

Consider MYQMSTVKRRRVGGSNDMCV, for which the amyloid nucleation score entry is “inactive”.

Consider TYLLYCCVVVR, for which the amyloid nucleation score entry is “inactive”.

Turning to NYWYITKERGSNLVWSNGDE, the amyloid nucleation score entry is “inactive”.

As for KNLGLA, the amyloid nucleation score entry was “inactive”.

Regarding NDFSPVRWTVLDTDDPK, the amyloid nucleation score entry is “inactive”.

With CRGLLYISVNYNMILFQHTR, the amyloid nucleation score result is “inactive”.

FNSYKGNVSFAGW registered an amyloid nucleation score of -0.155 ± 1.4.

With SQFTEICTPVRHGSCCR, the amyloid nucleation score entry is “inactive”.

FRYEILTI yielded an amyloid nucleation score of 0.912 ± 0.12.

As for IPNMDAFLERRPREYNWPVA, the amyloid nucleation score result was “inactive”.

For SSAIMCWRFMLMNSILITTP, the amyloid nucleation score result is “inactive”.

For RDSLFSV, the amyloid nucleation score result is “inactive”.

With WTSQVMRMDKTQVTGRDRVA, the amyloid nucleation score result was “inactive”.

RFTSVILNTSDLSKLRMGTE gave an amyloid nucleation score of 0.437 ± 0.31.

VFVPVYPEFFVRSG: the amyloid nucleation score result is “inactive”.

Turning to GFGGSSAHDRGYETRKSSLE, the amyloid nucleation score result is “inactive”.

For the substance APGCGTNLGMIFALGWALWR, the amyloid nucleation score result was “inactive”.

With MHLEYGVFIDARATYML, the amyloid nucleation score came to 1.49 ± 0.12.

For FVQGYSFWYWVETYMFIRFV, the amyloid nucleation score result was “inactive”.

Take TVVKPNRLAYHSQLFCKAHT: the amyloid nucleation score result was “inactive”.

In the case of FYVRVALRVSLLLWSGFTWV, the amyloid nucleation score result was “inactive”.

Turning to ILMQNSETWSLYPNTA, the amyloid nucleation score entry is “inactive”.

Consider DRTHDSSDSCGCCNNL, for which the amyloid nucleation score entry is “inactive”.

As for ETQWFEI, the amyloid nucleation score entry was “inactive”.

Regarding GCKMVGRICSDIICSVGVME, the amyloid nucleation score is 0.988 ± 0.16.

Take QWFRKLFYLTSLEDAPQIPR: the amyloid nucleation score result was “inactive”.

As for WYMHTTLD, the amyloid nucleation score entry was “inactive”.

Take TSMSGYRTRNPMTVPHHCVV: the amyloid nucleation score entry is “inactive”.

Substance HCVMNNVAWVLRYTDRRDAL had an amyloid nucleation score of 1.2 ± 0.091.

VSLLNITTVMSSPRIQGKHV: the amyloid nucleation score is 1.01 ± 0.12.

For the substance YRNSICHNREKAWHGSNKNR, the amyloid nucleation score entry is “inactive”.

For TPYQYFFRNCWKMSYRRAKI, the amyloid nucleation score entry was “inactive”.

On to NCCQFPVDAS, for which the amyloid nucleation score entry is “inactive”.

On to EDERNSMCTKPIRDHRLSWM, for which the amyloid nucleation score result is “inactive”.

As for AILEVLT, the amyloid nucleation score was 0.671 ± 0.17.

Turning to KISGNFKILDWVGNFSDGNS, the amyloid nucleation score entry was “inactive”.

Consider VFDPGLSNCWRVTGWNED, for which the amyloid nucleation score result was “inactive”.

Consider KSKHTVMRWSLYSRRIMLVF, for which the amyloid nucleation score result was “inactive”.

For the substance LRCVGGSGSEGLVLSRMVTG, the amyloid nucleation score result is “inactive”.

LLTFSH: the amyloid nucleation score entry was “inactive”.

On to FDVIS, for which the amyloid nucleation score result is “inactive”.

Take VDAIASGVYWPPVVVYSWLF: the amyloid nucleation score entry was “inactive”.

With IGIIFSKVWSPPDDMHT, the amyloid nucleation score came out at 1.28 ± 0.095.

For the substance IWVENQFDRRFLGVSMF, the amyloid nucleation score result was “inactive”.

Take HLSTRLARFPLL: the amyloid nucleation score result is “inactive”.

RLLIMSGNNGLLGPSYNAIV: the amyloid nucleation score is -0.01 ± 0.78.

Turning to MRGFFCRIH, the amyloid nucleation score result is “inactive”.

With WVRAA, the amyloid nucleation score entry was “inactive”.

As for WKYGKLISPFVQDVVSLSIK, the amyloid nucleation score entry was “inactive”.

VTQATWLGRIYLLLAPA: the amyloid nucleation score result was “inactive”.

Consider NFVMLEKPDRTDLPGCTKQR, for which the amyloid nucleation score result is “inactive”.

On to NVLLCINTRYR, for which the amyloid nucleation score worked out at 1.35 ± 0.077.

Regarding ELRSL, the amyloid nucleation score entry is “inactive”.

Regarding SDITSHLRHSNASNGSWNWL, the amyloid nucleation score result is “inactive”.

WDNITRNWRSCPHQMSLRYL had an amyloid nucleation score of -0.148 ± 1.

WDPECSTDVISEGRGRYTEW: the amyloid nucleation score result was “inactive”.

Turning to SLGNYHTLGMVFRLA, the amyloid nucleation score is -0.093 ± 0.48.

Take GVDSARQRSDHVNRERSSGC: the amyloid nucleation score entry is “inactive”.

On to LLAMPNQRWGTTLLYVQDWF, for which the amyloid nucleation score result is “inactive”.

For the substance LSIDMSLYLCSTFYFK, the amyloid nucleation score was 2.31 ± 0.06.

Consider QRFPKCI, for which the amyloid nucleation score result was “inactive”.

In the case of ECYIVWFLRLCSSGVYVYLR, the amyloid nucleation score result was “inactive”.

As to LRYSVEAFTRDDLTESSQVV, the amyloid nucleation score entry was “inactive”.

In turn, HFVVKV had an amyloid nucleation score of 1.27 ± 0.089.

With DLIRQRAETPKMVISWR, the amyloid nucleation score entry was “inactive”.

On to GGYSQKLYILYDYLFENYYS, for which the amyloid nucleation score entry was “inactive”.

Take ELRELFQNCL: the amyloid nucleation score entry is “inactive”.

In the case of LFDLRDNVCSRVSRNYTAGA, the amyloid nucleation score entry was “inactive”.

On to LFNYVSMPANSSSRYTGMLL, for which the amyloid nucleation score entry was “inactive”.

For YAFVCSDV, the amyloid nucleation score entry is “inactive”.

As for LSLVCNCRSTCNCPGLSL, the amyloid nucleation score result is “inactive”.

As to HIVLLKCIQAAETVAGFKW, the amyloid nucleation score result was “inactive”.

On to GNELQSEFLDFLTCRERGKG, for which the amyloid nucleation score entry is “inactive”.

In turn, FVCLT yielded an amyloid nucleation score of 1.32 ± 0.13.

With VTQESNHATIAVLM, the amyloid nucleation score entry was “inactive”.

On to TYISF, for which the amyloid nucleation score entry was “inactive”.

For the substance ARLVYFFLYGLSCRMHCLCW, the amyloid nucleation score entry is “inactive”.

As for YVSHVSISVSSMLCYGGQSW, the amyloid nucleation score came out at 1.93 ± 0.096.

Consider VFMNKGQRV, for which the amyloid nucleation score entry was “inactive”.

Turning to PNICGLGYYRLWSMLGITCW, the amyloid nucleation score result was “inactive”.

As for CLWFISRQFDLYHRVMGNRS, the amyloid nucleation score result is “inactive”.

The substance VFASQ gave an amyloid nucleation score of 1.3 ± 0.13.

Regarding CIRVKHFCISHEDKR, the amyloid nucleation score entry is “inactive”.

Consider DWATFNLIKAVYLRRCSCGL, for which the amyloid nucleation score result was “inactive”.

With LLVMSQVKYRHMSAAPA, the amyloid nucleation score entry was “inactive”.

Turning to NHGLLTKGMISAFRII, the amyloid nucleation score entry is “inactive”.

RPHRAWALAVRVASDVCQNS returned an amyloid nucleation score of 1.11 ± 0.11.

Consider QLKSVRACGRRGPLSQ, for which the amyloid nucleation score entry is “inactive”.

As for MSRGGYWSKVR, the amyloid nucleation score result is “inactive”.

With LLKLRIQIKVWTS, the amyloid nucleation score entry was “inactive”.

RKIHVAMVLRIEYSMYGSPA: the amyloid nucleation score entry was “inactive”.

For the substance KNLHNTRRLCSVLLVCWMYK, the amyloid nucleation score entry was “inactive”.

In turn, SSIHVGVYYFMCMLEDVSRE came in with an amyloid nucleation score of 1.07 ± 0.14.

As for YCSLLSDERGSSVTGILAVF, the amyloid nucleation score entry was “inactive”.

With NICLKNSVS, the amyloid nucleation score result was “inactive”.

Take MGIQKTDRWRLWYYYWMREN: the amyloid nucleation score entry was “inactive”.

On to TAFYSRYFWVNLICRRPSFK, for which the amyloid nucleation score entry is “inactive”.

Regarding SKIGILWCLMSEECYLFQFR, the amyloid nucleation score entry was “inactive”.

For FIILKYGLYM, the amyloid nucleation score is 0.507 ± 0.14.

For the substance FYMWFMRTGLTKYPNGAIKV, the amyloid nucleation score entry was “inactive”.

With DSSLYKDQYRVRSSGQFKRA, the amyloid nucleation score result was “inactive”.

For the substance FSGTIGILFFMTWSTVLPWG, the amyloid nucleation score result is “inactive”.

Take LTNSYLDMLRM: the amyloid nucleation score entry was “inactive”.

For the substance SSGGCR, the amyloid nucleation score result is “inactive”.

Consider SLMNHLSGTKVMLGRLRYSN, for which the amyloid nucleation score entry is “inactive”.

For NTLDDDFRISPDATVYSVYW, the amyloid nucleation score result was “inactive”.

In the case of RGYGAAHQRRCQRIRNYYKY, the amyloid nucleation score entry is “inactive”.

In the case of QGISQPRHCFY, the amyloid nucleation score result was “inactive”.

As for WMCVLCCSVRNIGKTYKSCL, the amyloid nucleation score result is “inactive”.

As to REYPYDMYSHLSLFDARHPG, the amyloid nucleation score entry is “inactive”.

With ANWIVGC, the amyloid nucleation score result was “inactive”.

In turn, KGCPVASMAQWNSCMCYVLV registered an amyloid nucleation score of 1.08 ± 0.12.

With MSFMTDLNPTFLFMLIG, the amyloid nucleation score entry is “inactive”.

KSICELVIRRNFVSLNIATY came in with an amyloid nucleation score of -0.336 ± 0.7.

In turn, WRSCSKDHLCFQSPVMPLSR registered an amyloid nucleation score of 0.214 ± 0.42.

In the case of QRDHMGFSGDLW, the amyloid nucleation score result was “inactive”.

Take SLSHECTSNKTEQVIERRLW: the amyloid nucleation score result is “inactive”.

For NQSGALVG, the amyloid nucleation score entry is “inactive”.

Turning to SYSNDHAFVSRVAGCNIC, the amyloid nucleation score was 1.53 ± 0.1.

Take LPGNVFDVPLFNLDVYWVTR: the amyloid nucleation score entry was “inactive”.

The substance YRDRIVNHIVGLLGIGS displayed an amyloid nucleation score of 1.16 ± 0.11.

In the case of MRYINEKCVT, the amyloid nucleation score entry was “inactive”.
